This assay addresses T1, Flrt3 ectodomain (zebrafish, biotin on the enzymatically biotinylatable sequence (bait form)).
T1 chain: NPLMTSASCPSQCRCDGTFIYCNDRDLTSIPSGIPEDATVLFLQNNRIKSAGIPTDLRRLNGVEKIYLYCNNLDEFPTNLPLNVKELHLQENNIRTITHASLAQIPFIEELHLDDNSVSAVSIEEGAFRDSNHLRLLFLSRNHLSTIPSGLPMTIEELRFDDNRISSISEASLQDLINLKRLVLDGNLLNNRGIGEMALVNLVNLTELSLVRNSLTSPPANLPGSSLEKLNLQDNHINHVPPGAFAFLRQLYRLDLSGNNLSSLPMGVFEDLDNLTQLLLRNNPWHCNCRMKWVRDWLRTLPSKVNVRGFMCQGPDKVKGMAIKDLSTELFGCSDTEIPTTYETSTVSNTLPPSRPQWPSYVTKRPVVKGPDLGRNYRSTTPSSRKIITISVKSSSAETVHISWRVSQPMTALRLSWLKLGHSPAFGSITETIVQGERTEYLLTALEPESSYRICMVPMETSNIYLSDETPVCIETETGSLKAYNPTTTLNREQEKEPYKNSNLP
As to the kind of experiment: SPR. On the technique in general: Surface plasmon resonance follows binding to a sensor surface in real time, without labels.

This passage reports koff results from PMC2768988 (2009).

As usually defined, the koff is the first-order rate constant of dissociation.

B1: Unc5b-Cd4d3+4-6His (domain or fragment)
chain: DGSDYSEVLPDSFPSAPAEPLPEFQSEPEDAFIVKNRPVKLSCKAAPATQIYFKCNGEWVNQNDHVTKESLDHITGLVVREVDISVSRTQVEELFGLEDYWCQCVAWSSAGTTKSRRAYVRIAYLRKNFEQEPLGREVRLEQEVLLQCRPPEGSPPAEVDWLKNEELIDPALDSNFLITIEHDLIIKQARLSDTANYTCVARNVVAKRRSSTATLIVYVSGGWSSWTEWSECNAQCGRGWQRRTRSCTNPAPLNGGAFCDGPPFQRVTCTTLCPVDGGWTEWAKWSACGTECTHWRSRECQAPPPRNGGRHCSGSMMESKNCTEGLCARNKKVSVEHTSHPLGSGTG
As for B1, the koff turned out to be 5.5 s⁻¹.
